In patent US8735341:

Test system: TAT-mMDH-eGFP fusion protein

mitochondrial processing peptidases in the matrix contents of rat liver mitochondria
cleavage of the mMDH signal sequence after incubation with mitochondrial matrix contents (gel): The matrix signal peptidase progressively cleaved the mMDH signal sequence at two sites yielding two cleavage products of an estimated molecular mass of 32 kDa and 28.9 kDa
